Holding throughout (assay): holdup assay
Parameters in all cases: key: below the threshold = too weak to quantify, mostly under pKd 3.1 to 4

Assay [1] deals with T1, CARD11, Q9BXL7.
T1 sequence (Q9BXL7 662-765, limits assumed, looked up): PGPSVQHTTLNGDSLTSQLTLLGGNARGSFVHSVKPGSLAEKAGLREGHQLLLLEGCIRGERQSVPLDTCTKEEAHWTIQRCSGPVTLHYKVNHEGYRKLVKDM

Assay [2] concerns the target T2, DFNB31_1, Q9P202.
T2 sequence (Q9P202 135-233, limits assumed, looked up): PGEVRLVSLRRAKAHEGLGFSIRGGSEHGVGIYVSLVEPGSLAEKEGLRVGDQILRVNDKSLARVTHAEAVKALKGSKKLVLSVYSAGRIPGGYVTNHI

The target of assay [3] is T3, DFNB31_2, Q9P202.
T3 sequence (Q9P202 274-371, limits assumed, looked up): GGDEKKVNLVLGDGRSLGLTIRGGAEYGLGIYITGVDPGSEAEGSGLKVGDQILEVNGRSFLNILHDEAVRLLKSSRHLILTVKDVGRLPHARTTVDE

Assay [4] addresses DLG1_1, Q12959.
Assay [5] deals with T4, DLG3_1, Q92796.
T4 sequence (Q92796 125-227, limits assumed, looked up): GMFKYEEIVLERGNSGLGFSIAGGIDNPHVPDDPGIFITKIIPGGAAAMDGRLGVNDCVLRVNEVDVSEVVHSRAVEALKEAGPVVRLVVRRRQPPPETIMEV

Assay [6] concerns the target DLG5_1, Q8TDM6.
Assay [7] deals with FRMPD2_1, Q68DX3.
The target of assay [8] is T5, GRIP1_4, Q9Y3R0.
T5 sequence (Q9Y3R0 467-571, limits assumed, looked up): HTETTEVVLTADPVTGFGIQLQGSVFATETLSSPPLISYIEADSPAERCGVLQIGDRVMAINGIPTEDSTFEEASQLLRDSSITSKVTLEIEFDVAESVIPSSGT

Assay [9] has as its target GRIP2_4, Q9C0E4.
Assay [10] addresses IL16_3, Q14005.
Assay [11] deals with Inadl_3, Q8NI35.
For assay [12], the target named is Inadl_8, Q8NI35.
Assay [13] deals with LIMK2, P53671.
Assay [14] concerns the target T6, LNX2_2, Q8N448.
T6 sequence (Q8N448 334-432, limits assumed, looked up): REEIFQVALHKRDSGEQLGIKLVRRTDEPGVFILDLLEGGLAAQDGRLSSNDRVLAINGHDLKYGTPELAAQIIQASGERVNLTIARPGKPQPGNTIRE

For assay [15], the target named is MAGI1_1, Q96QZ7.
Assay [16] addresses MAGI2_4, Q86UL8.
Assay [17] concerns the target T7, MPDZ_10, O75970.
T7 sequence (O75970 1624-1722, limits assumed, looked up): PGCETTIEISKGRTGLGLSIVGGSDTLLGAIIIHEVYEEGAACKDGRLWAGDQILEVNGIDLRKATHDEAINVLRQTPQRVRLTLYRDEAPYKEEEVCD

Assay [18] has as its target T8, MPDZ_12, O75970.
T8 sequence (O75970 1857-1958, limits assumed, looked up): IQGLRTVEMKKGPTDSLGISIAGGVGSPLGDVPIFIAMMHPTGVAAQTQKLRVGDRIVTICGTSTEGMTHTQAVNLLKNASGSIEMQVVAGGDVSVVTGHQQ

Assay [19] deals with NHERF4_1, Q86UT5-2.
In assay [20] the target is T9, PDZD2_2, O15018.
T9 sequence (O15018 329-429, limits assumed, looked up): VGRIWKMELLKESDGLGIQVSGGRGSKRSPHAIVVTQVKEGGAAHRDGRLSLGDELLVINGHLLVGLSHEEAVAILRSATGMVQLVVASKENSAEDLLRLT

The target of assay [21] is T10, RADIL, Q96JH8.
T10 sequence (Q96JH8 971-1071, limits assumed, looked up): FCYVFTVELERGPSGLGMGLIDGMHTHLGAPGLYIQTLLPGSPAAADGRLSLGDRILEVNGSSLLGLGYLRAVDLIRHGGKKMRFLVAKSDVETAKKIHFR

For assay [22], the target named is SCRIB_3, Q14160.
Assay [23] has as its target T11, SNTG2, Q9NY99.
T11 sequence (Q9NY99 68-166, limits assumed, looked up): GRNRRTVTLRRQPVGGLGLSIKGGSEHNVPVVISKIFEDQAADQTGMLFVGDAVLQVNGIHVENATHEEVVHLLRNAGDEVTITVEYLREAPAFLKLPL

In assay [24] the target is T12, TX1BP3, O14907.
T12 sequence (O14907 10-122, limits assumed, looked up): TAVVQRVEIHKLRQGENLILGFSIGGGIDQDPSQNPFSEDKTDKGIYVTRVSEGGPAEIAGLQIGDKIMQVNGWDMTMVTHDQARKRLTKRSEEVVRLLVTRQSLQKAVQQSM

[25] abbreviates: plain residues with an end cap or a label only (N-terminal biotin on a linker: ado-ado).
[26] abbreviates: plain residues with an end cap or a label only (N-terminal biotin on a linker: ahx).
Where [27] appears, read: plain residues with an end cap or a label only (N-terminal biotin on a linker: ttds).

The source of these data is PMC9482650, “Quantitative fragmentomics allow affinity mapping of interactomes” (Nature Communications, 2022).

IL16_3, Q14005, sequence (Q14005 1107-1207): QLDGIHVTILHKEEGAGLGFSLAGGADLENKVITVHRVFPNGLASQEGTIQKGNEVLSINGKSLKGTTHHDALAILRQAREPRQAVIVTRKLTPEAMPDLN
SCRIB_3, Q14160, sequence (Q14160 999-1103): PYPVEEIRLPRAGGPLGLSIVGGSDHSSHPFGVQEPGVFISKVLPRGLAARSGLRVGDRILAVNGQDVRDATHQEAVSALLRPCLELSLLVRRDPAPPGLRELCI
NHERF4_1, Q86UT5-2, sequence (Q86UT5 other isoform, or with tags, fused parts or gaps): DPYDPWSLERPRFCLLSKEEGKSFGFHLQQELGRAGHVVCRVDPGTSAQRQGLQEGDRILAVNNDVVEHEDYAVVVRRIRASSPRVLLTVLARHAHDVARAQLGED
DLG5_1, Q8TDM6, sequence (Q8TDM6 617-713): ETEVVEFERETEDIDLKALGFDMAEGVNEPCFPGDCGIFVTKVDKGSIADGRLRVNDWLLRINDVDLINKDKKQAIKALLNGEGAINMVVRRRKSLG
GRIP2_4, Q9C0E4, sequence (Q9C0E4 446-548): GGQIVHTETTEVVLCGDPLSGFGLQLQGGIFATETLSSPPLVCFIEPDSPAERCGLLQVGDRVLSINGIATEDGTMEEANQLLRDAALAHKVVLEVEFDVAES
MAGI1_1, Q96QZ7, sequence (Q96QZ7 1-106): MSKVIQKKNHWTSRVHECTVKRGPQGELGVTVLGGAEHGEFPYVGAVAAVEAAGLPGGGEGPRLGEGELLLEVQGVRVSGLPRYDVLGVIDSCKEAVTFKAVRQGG
FRMPD2_1, Q68DX3, sequence (Q68DX3 770-861): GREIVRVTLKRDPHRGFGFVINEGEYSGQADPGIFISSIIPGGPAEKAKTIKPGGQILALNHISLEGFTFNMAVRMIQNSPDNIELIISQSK
MAGI2_4, Q86UL8, sequence (Q86UL8 772-865): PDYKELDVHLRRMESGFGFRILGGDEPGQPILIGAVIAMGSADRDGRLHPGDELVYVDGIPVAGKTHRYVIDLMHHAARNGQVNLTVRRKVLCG
Inadl_8, Q8NI35, sequence (Q8NI35 1425-1530): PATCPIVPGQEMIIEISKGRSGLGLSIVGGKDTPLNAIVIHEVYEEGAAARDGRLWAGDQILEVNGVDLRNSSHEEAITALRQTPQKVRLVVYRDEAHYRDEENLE
Inadl_3, Q8NI35, sequence (Q8NI35 359-469): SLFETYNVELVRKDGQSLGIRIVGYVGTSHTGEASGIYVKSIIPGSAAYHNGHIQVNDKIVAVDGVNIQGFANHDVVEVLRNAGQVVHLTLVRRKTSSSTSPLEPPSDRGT
LIMK2, P53671, sequence (P53671 143-248): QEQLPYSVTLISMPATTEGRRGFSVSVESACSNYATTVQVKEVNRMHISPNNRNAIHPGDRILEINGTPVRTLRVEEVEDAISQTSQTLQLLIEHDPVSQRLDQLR

B1: FMNL3, Q8IVF7 (peptide)
chain: DAAHHDESNC
The pKd is the negative decadic logarithm of the Kd, by convention in mol/L. Consider B1, for which the pKd result in assay [1] (setting [25]), in [2] (setting [25]), in assay [3] (setting [25]), in assay [4] (setting [25]), in assay [5] (setting [25]) and in [6] (setting [25]) was “below the threshold” each time. Further, the pKd result in assay [7] (setting [25]), in assay [8] (setting [25]), in assay [9] (setting [25]), in assay [10] (setting [25]), in assay [11] (setting [25]) and in assay [12] (setting [25]) was “below the threshold” each time. The pKd entry in assay [13] (setting [25]), in assay [14] (setting [25]), in [15] (setting [25]), in [16] (setting [25]), in assay [17] (setting [25]) and in [18] (setting [25]) was “below the threshold” in each case. Besides, the negative-log Kd (pKd) entry is “below the threshold” in assay [19] (setting [25]); 4.13 in [20] (setting [25]); “below the threshold” in [21] (setting [25]); “below the threshold” in assay [22] (setting [25]); “below the threshold” in assay [23] (setting [25]); “below the threshold” in [24] (setting [25]).

B2: CNTNAP4, Q9C0A0 (peptide)
chain: VNENQKEYFF
For B2, the pKd result in [1] (setting [26]), in assay [2] (setting [26]), in [3] (setting [26]), in assay [4] (setting [26]), in assay [5] (setting [26]) and in [6] (setting [26]) was “below the threshold” throughout. In addition, the pKd result in assay [7] (setting [26]) was “below the threshold”; in [8] (setting [26]), “below the threshold”; in assay [9] (setting [26]), “below the threshold”; in assay [10] (setting [26]), “below the threshold”; in assay [11] (setting [26]), 3.95; in assay [12] (setting [26]) it was “below the threshold”. Besides, the negative logarithm of the Kd (pKd) entry was “below the threshold” in [13] (setting [26]); “below the threshold” in [14] (setting [26]); “below the threshold” in [15] (setting [26]); 3.55 in assay [16] (setting [26]); “below the threshold” in [17] (setting [26]); “below the threshold” in [18] (setting [26]). In addition, the pKd in [19] (setting [26]) was 3.51; in [20] (setting [26]), “below the threshold”; in assay [21] (setting [26]), 4.3; in [22] (setting [26]) it was 3.7; in [23] (setting [26]), “below the threshold”; in [24] (setting [26]) it was “below the threshold”.

B3: RALBP1, Q15311 (peptide)
chain: PSRDRKETSI
In the case of B3, the pKd result is “below the threshold” in assay [1] (setting [27]); 4.35 in assay [2] (setting [27]); “below the threshold” in [3] (setting [27]); 3.79 in assay [4] (setting [27]); 3.3 in assay [5] (setting [27]); “below the threshold” in assay [6] (setting [27]). The pKd result in assay [7] (setting [27]), in assay [8] (setting [27]), in assay [9] (setting [27]), in [10] (setting [27]), in assay [11] (setting [27]) and in assay [12] (setting [27]) was “below the threshold” in each case. For the same molecule, the pKd result in assay [13] (setting [27]), in assay [14] (setting [27]), in assay [15] (setting [27]), in [16] (setting [27]), in assay [17] (setting [27]) and in [18] (setting [27]) was “below the threshold” throughout. Moreover, the pKd was 3.36 in assay [19] (setting [27]); 3.75 in assay [20] (setting [27]); “below the threshold” in assay [21] (setting [27]); 4.97 in [22] (setting [27]); 4.32 in assay [23] (setting [27]); 4.23 in assay [24] (setting [27]).

B4: SLC1A3, P43003 (peptide)
chain: EKPIDSETKM
Consider B4, for which the pKd result in assay [1] (setting [25]) is “below the threshold”; in assay [2] (setting [25]), 3.48; in [3] (setting [25]), “below the threshold”; in [4] (setting [25]), “below the threshold”; in assay [5] (setting [25]), “below the threshold”; in assay [6] (setting [25]), “below the threshold”. The pKd entry in [7] (setting [25]), in [8] (setting [25]), in assay [9] (setting [25]), in assay [10] (setting [25]), in assay [11] (setting [25]) and in assay [12] (setting [25]) was “below the threshold” each time. Further, the pKd entry in assay [13] (setting [25]), in [14] (setting [25]), in assay [15] (setting [25]), in [16] (setting [25]), in [17] (setting [25]) and in assay [18] (setting [25]) was “below the threshold” in each case. Moreover, the pKd result in assay [19] (setting [25]) is “below the threshold”; in assay [20] (setting [25]), “below the threshold”; in [21] (setting [25]), “below the threshold”; in assay [22] (setting [25]), 3.58; in assay [23] (setting [25]) it was “below the threshold”; in assay [24] (setting [25]), “below the threshold”.
